This note sets out measurements from US9085636B2, “CETP fragments” (AFFIRIS AG, priority 2011, dated 2015).

Assay [1] concerns respective peptides coupled to bovine serum albumin (BSA). Nature of the assay: Peptide ELISA: anti-peptide titers of sera from vaccinated mice. The class given is in vivo. The settings on record: median values (n = 5); Balb/c mice s.c. three times 15 μg net peptide coupled to KLH, Alum; titre = serum dilution at 50% of ODmax. The protocol:
(§1) The peptides were conjugated via the heterobifunctional linker GMBS (4-Maleimidobutyric acid N-hydroxysuccinimide ester) to KLH (Keyhole Limpet Hemocyanin).
(§2) 15 μg of the peptides were suspended with aluminum hydroxide (end concentration of aluminum hydroxide was 0.2%). As buffer mannitol/phosphate was used.
(§3) 5 Balb/c mice were subcutaneously immunized. Mice had access to food and water ad libitum and were kept under a 12 h light/dark cycle. Age of mice at the beginning of experiments was usually 8 to 10 weeks.
(§4) Mice were injected three times in 2 week intervals with 15 μg of net peptide coupled to KLH and adsorbed to Alum as adjuvant in a volume of 1 ml in total via the s.c. route.
(§5) Blood was taken approximately 2 weeks after the final injection.
(§6) To determine the immunogenicity of the vaccines, 96-well Nunc-Maxisorb plates were coated with 1 μM of the respective peptides coupled to bovine serum albumin (BSA) in 0.1 M NaHCO3, pH 9.2-9.4. An irrelevant peptide was used as negative control. KLH was included as positive control and coated at a concentration of 1 μg/ml. Unspecific binding was blocked by incubation with blocking buffer (5% BSA in PBS). Appropriate serum dilutions were added to the wells, serially diluted 1:2 fold and incubated for approximately 1 hour at 37° C. On every ELISA plate a standard serum was included as internal control. Bound antibodies were detected by incubation with biotinylated goat anti-mouse IgG, followed by horseradish peroxidase coupled to Streptavidin. As substrate ABTS was added and the optical density (OD) at 405 nm was measured in a Microwell plate-reader. The titres were defined as the dilution of the serum where 50% of the ODmax in the assay are reached.
(In general: In an ELISA, binding on a coated surface is turned into a signal by an enzyme label.)

The target in assay [2] is T1, recombinantly expressed human CETP N-terminally fused to GST (GST-CETP) (Homo sapiens, UniProt P11597).
T1 construct: not only antibodies directed to the peptide itself but also to the mature CETP protein; GST (N); made in house
T1 sequence (P11597 18-493): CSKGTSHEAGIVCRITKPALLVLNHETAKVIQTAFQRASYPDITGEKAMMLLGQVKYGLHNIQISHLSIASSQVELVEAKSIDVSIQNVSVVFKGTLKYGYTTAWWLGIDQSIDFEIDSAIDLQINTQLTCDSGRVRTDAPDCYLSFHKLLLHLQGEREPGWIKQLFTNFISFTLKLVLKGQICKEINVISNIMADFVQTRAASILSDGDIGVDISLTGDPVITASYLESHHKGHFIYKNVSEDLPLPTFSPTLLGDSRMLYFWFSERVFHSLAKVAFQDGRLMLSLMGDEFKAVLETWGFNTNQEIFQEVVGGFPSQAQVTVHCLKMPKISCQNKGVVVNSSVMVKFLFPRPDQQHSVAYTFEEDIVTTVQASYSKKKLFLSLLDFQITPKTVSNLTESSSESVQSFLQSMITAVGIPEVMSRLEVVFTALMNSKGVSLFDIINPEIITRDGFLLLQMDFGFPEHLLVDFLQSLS
Description: Protein ELISA: anti-protein titers of sera from vaccinated mice. The settings on record: for anti-protein titers: median values (n = 5), Balb/c mice s.c. three times 15 μg net peptide coupled to KLH, Alum, GST-CETP ELISA, titre = serum dilution at 50% of ODmax. It is filed as in vivo, Balb/c mice. Here is the method: as §1, §2, §3, §4, §5, §6
The antibodies induced by the vaccination were tested for their ability to bind to recombinantly expressed human CETP N-terminally fused to GST (“GST-CETP”) using the protocol described under “peptide ELISA”.

For assay [3], the target named is T2, CETP activity of human serum (Homo sapiens, UniProt P11597).
T2 construct: Human serum was used as CETP source; from tissue; host or cells: human serum
T2 sequence (P11597 18-493): T1 sequence (P11597 18-493)
Nature of the assay: CETP activity inhibition assay (Roar kit) with sera from vaccinated mice. The following applies: n=5 mice per group; human serum as CETP source mixed with same amount of serum from vaccinated mice. It is filed as biochemical. Here is the method:
as §3, §4, §5
CETP activity was determined with the Roar CETP activity assay kit (RB-CETP; Roar Biomedical) by measuring the transfer of a fluorescently labeled substrate according to the protocol provided by the manufacturer. […] Human serum was used as CETP source and was mixed with the same amount of serum from vaccinated mice together with donor and acceptor particles (components of the CETP activity assay kit).
Mouse sera containing CETP-inhibiting antibodies lead to a decrease of the signal in this assay. Sera from mice injected with irrelevant peptide served as negative control.

No end group written: not given here.

For 1 (YTTAWWLGIDQS) [compound 1], the anti-peptide titers in assay [1] is on record as 70,000. Besides, the anti-protein titers in assay [2] came out at 800. Further, the “no. of mice with antibodies inhibiting CETP activity” value in assay [3] is reported as 3 of 5.

In the case of 2 (KAMMLLGQV) [compound 2], in assay [1], the anti-peptide titers is reported as 66,000. In addition, in assay [2], the anti-protein titers was determined as 0.

For 3 (LHLQGEREPGWIKQ) [compound 3], the anti-peptide titers in assay [1] is 97,000. Moreover, in assay [2], the anti-protein titers was 50.

Turning to 4 (DEFKAVLETWG) [compound 4], in assay [1], the anti-peptide titers is on record as 140,000. Further, the anti-protein titers in assay [2] is 0.

On to 5 (GFNTNQEIFQEVVGGFP) [compound 5], for which, in assay [1], the anti-peptide titers is on record as 100,000. For the same substance, the anti-protein titers in assay [2] is 100.

On to 6 (ESIQSFLQSMITA) [compound 6], for which, in assay [1], the anti-peptide titers is on record as 69,000. Besides, in assay [2], the anti-protein titers is given as 0.

7 (YGYTTAWWLGIDQSID) [compound 7]: the anti-peptide titers in assay [1] is given as 33,000. For the same substance, the anti-protein titers in assay [2] stood at 500. The “no. of mice with antibodies inhibiting CETP activity” value in assay [3] is reported as 3 of 5.

As to 8 (TTAWWLGIDQS) [compound 8], the anti-peptide titers in assay [1] is 89,000. In assay [2], the anti-protein titers is given as 1,200. For the same substance, the “no. of mice with antibodies inhibiting CETP activity” value in assay [3] is given as 4 of 5.

On to 9 (TAWWLGIDQS) [compound 9], for which the anti-peptide titers in assay [1] is listed as 173,000. Also, the anti-protein titers in assay [2] is reported as 2,200. The “no. of mice with antibodies inhibiting CETP activity” value in assay [3] is recorded as 4 of 5.

With 10 (AWWLGIDQS) [compound 10], in assay [1], the anti-peptide titers is recorded as 191,000. Besides, in assay [2], the anti-protein titers is given as 1,700. Moreover, the “no. of mice with antibodies inhibiting CETP activity” value in assay [3] is 5 of 5.

Turning to 11 (WWLGIDQS) [compound 11], the anti-peptide titers in assay [1] was 330,000. For the same substance, the anti-protein titers in assay [2] is reported as 1,100. Also, the “no. of mice with antibodies inhibiting CETP activity” value in assay [3] is given as 5 of 5.

Take 12 (WLGIDQS) [compound 12]: in assay [1], the anti-peptide titers is listed as 153,000. Also, the anti-protein titers in assay [2] is listed as 0.

For 13 (YTTAWWLGIDQ) [compound 13], in assay [1], the anti-peptide titers is given as 143,000. Besides, the anti-protein titers in assay [2] is 1,200. Besides, the “no. of mice with antibodies inhibiting CETP activity” value in assay [3] was 1 of 5.

14 (YTTAWWLGID) [compound 14]: the anti-peptide titers in assay [1] is on record as 630,000. In addition, the anti-protein titers in assay [2] came out at 600. Besides, in assay [3], the “no. of mice with antibodies inhibiting CETP activity” value is 1 of 5.

On to 15 (YTTAWWLGI) [compound 15], for which the anti-peptide titers in assay [1] was 111,000. Moreover, the anti-protein titers in assay [2] is reported as 300. Also, the “no. of mice with antibodies inhibiting CETP activity” value in assay [3] is 0 of 5.

For the substance 16 (YTTAWWLG) [compound 16], in assay [1], the anti-peptide titers is 74,000. Further, in assay [2], the anti-protein titers is recorded as 0.

With 17 (YTTAWWL) [compound 17], the anti-peptide titers in assay [1] is recorded as 94,000. The anti-protein titers in assay [2] turned out to be 0.

Consider 18 (TTAWWLGIDQ) [compound 18], for which the anti-peptide titers in assay [1] is on record as 216,000. Moreover, the anti-protein titers in assay [2] was determined as 900. The “no. of mice with antibodies inhibiting CETP activity” value in assay [3] is given as 4 of 5.

Turning to 19 (TTAWWLGID) [compound 19], in assay [1], the anti-peptide titers is recorded as 114,000. Further, the anti-protein titers in assay [2] was 1,300. Moreover, the “no. of mice with antibodies inhibiting CETP activity” value in assay [3] is given as 3 of 5.

On to 20 (TTAWWLGI) [compound 20], for which the anti-peptide titers in assay [1] is reported as 124,000. The anti-protein titers in assay [2] was found to be 300.

In the case of 21 (TAWWLGI) [compound 21], in assay [1], the anti-peptide titers is 99,000. Further, in assay [2], the anti-protein titers is on record as 0.

As for 22 (FPRPDQQHSV) [compound 22], the anti-peptide titers in assay [1] is 229,000. Besides, in assay [2], the anti-protein titers was determined as 0.

On to “C-YTTAWWLGIDQS (CYTTAWWLGIDQS; also: conjugated to KLH carrier) [SEQ ID No. 1, CETP fragment AA101-112, N-terminal cysteine, conjugated to KLH]”, for which, in assay [2] (vaccinated Balb/c mice, protein ELISA), the “formation of antibodies directed to mature CETP protein (in words)” value is on record as “leads to the formation of not only antibodies directed to the peptide itself but also to the mature CETP protein”.
